Here are results for 32 molecules from patent publication US20110091994A1, “Methods for Screening Compounds for Treating and/or Preventing an Hepatitis C Virus Infection” (priority 2008, published 2011).

Read-outs that look alike come from different tables or passages of the source.

One test deals with HCV RNA replication. Description: HCV RNA replication under bile acids / FXR ligands. Type of test: cell-based, Hepatitis C virus.
For test [1], the target named is T1, GST-tagged viral proteins (Hepatitis C virus genotype 1b, UniProt Q9WMX2).
T1 construct: expressed in transfected cells; host or cells: HEK-293T
Description: Validation by co-affinity purification (CoAP). Type of test: binding, HCV genotype 1b, isolate con1. Details: key: +: IMAP validation; −: not validated; NA: non assayable due to default of protein expression or to cellular protein directly interacting with GST. The source says:
C. Validation of Y2H interactions by co-affinity purification assay. Nine co-AP positive assays are shown, representing: NS5A-SORBS2 (1), NS3-CALCOCO2 (2), NS5A-BIN1 (3), NS5A-MOBK1B (4), NS5A-EFEMP1 (5), NS3-PSMB9 and NS5A-PSMB9 (6), NS5A-PPPIRI3L (7), NS3-RASAL2 (8). After pull-down with GST tagged viral baits (+) or with negative control GST alone (−), cellular preys are identified with anti-Flag antibody. Anti-GST antibody identifies either GST alone or GST-tagged viral baits. Expression of cellular preys in cell lysate is controlled by anti-Flag (bottom panel). […]
A random pool of 59 IMAP Y2H interactions was chosen for CoAP assays. Cellular ORFs (interacting domains found in Y2H screens) were cloned by recombinational cloning from a pool of human cDNA library or the MGC cDNA plasmids using KOD polymerase (Toyobo) into pDONR207 (Invitrogen). After validation by sequencing, these ORFs were transferred to pCi-neo-3xFLAG gateway-converted, and HCV ORFs were transferred into pDEST27 (GST fusion in N-term). HEK-293T cells were then co-transfected (JetPei, Polyplus) by each pair of plasmid encoding interacting proteins. Controls are GST alone against 3xFLAG-tagged preys. Two days after transfection, cells were harvested and lysed (0.5% NP-40, 20 mM Tris-HCl (pH 8.0), 180 mM NaCl, 1 mM EDTA, and complete protease inhibitor cocktail). Cell lysates were cleared by centrifugation for 20 min at 13,000 rpm at 4° C. and soluble protein complexes were purified using Glutathione Sepharose 4B beads (GE Healthcare). Beads were then washed extensively four times with lysis buffer and proteins were separated on SDS-PAGE and transferred to nitrocellulose membrane. GST-tagged viral proteins and 3xFLAG-tagged cellular proteins were detected using standard immunoblotting techniques using anti-GST (Covance) and anti-FLAG M2 (Sigma) monoclonal antibodies (21).

The next test concerns the target T2, HCV proteins (Hepatitis C virus genotype 1b, UniProt Q9WMX2).
T2 construct: expressed in transfected cells
Description: Validation by Y2H pairwise matrices.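 Also: yeast two-hybrid pairwise tests of interactions first found in Y2H screens of HCV bait proteins against human cDNA libraries.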 It is filed as binding.

The target of test [2] is T3, HCV ORFs (Gal4-DB fusions) (Hepatitis C virus genotype 1b, UniProt Q9WMX2).
T3 construct: expressed in transfected cells; host or cells: Saccharomyces cerevisiae MAV203 (IMAP1) / AH109 (IMAP2)
It is filed as binding, HCV genotype 1b, isolate con1. Conditions: human protein as prey.
Description: (§1) HCV ORFs were transferred from pDONR223 into bait vector (pPC97) to be expressed as Gal4-DB fusions in yeast. Two different screening methods were used (IMAP1 and IMAP2). Both for IMAP1 and IMAP2 strategies and because bait constructs sometimes self-transactivate reporter genes, SD-L-H culture medium were supplemented with 3-aminotriazole (3-AT). Appropriate concentrations of this drug were determined by growing bait strains on SD-L-H medium supplemented with increasing concentrations of 3-AT. […] For IMAP1, bait vectors were introduced in MAV203 yeast strain and both human spleen and foetal brain AD-cDNA libraries (Invitrogen) were screened by transformation as described (7). All primary positive clones (selected on SD-W-L-H+3-AT) were tested by further phenotypic assay using two additional reporter genes: LacZ (X-Gal colorimetric assay) and URA3 (growth assay on 5-FOA supplemented medium). […] AD-cDNA were PCR-amplified and inserts were sequenced to identify interactors. IMAP2 screens were performed by yeast mating, using AH109 and Y187 yeast strains (Clontech (8)). Bait vectors were transformed into AH109 (bait strain) and human spleen and foetal brain AD-cDNA libraries (Invitrogen) were transformed into Y187 (prey strain). Single bait strains were mated with prey strains then diploids were plated on SD-W-L-H+3-AT medium. Positive clones were maintained onto this selective medium for 15 days to eliminate any contaminant AD-cDNA plasmid (9). AD-cDNAs were PCR amplified and inserts were sequenced.
(§2) We have developed a bioinformatic pipeline that assigns each IST to its native human genome transcript. […] Gal4 motif was searched (last 87 bases of GAL4-AD), sequences downstream of this motif were translated into peptides and aligned using BLASTP against the REFSEQ (http://www.ncbi.nlm.nih.gov/RefSeq/) human protein sequence database (release 04/2007). Low-confidence alignments (E value>10^−10, identity <80%) and premature STOP codon containing sequences were eliminated. Only in-frame proteins and high quality sequences were further considered

For test [3], the system named is HCV ORFs (Gal4-DB fusions). Type of test: binding, HCV genotype 1b, isolate con1. Conditions: human protein listed by gene symbol; the value names the HCV protein it interacts with.
Description: as §1, §2
Where [4] appears, read: validation of interaction with HCV protein NS3.
Setting [5] is: interaction with HCV protein NS5A.
Setting [6] is: validation of interaction with HCV protein CORE.
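For IMAP Y2H IMAP1 (number of IST) in this document: yeast two-hybrid screens using HCV genotype 1b proteins fused to Gal4-DB as baits against prey cDNA libraries from human spleen and foetal brain, IMAP1 via transformation and IMAP2 via mating.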
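For IMAP Y2H IMAP2 (number of IST) in this document: yeast two-hybrid screens using HCV genotype 1b proteins fused to Gal4-DB as baits against prey cDNA libraries from human spleen and foetal brain, IMAP1 via transformation and IMAP2 via mating.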
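For Interaction with viral protein in this document: yeast two-hybrid screens using HCV genotype 1b proteins fused to Gal4-DB as baits against prey cDNA libraries from human spleen and foetal brain, IMAP1 via transformation and IMAP2 via mating.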

Description for HCV proteins: A comprehensive interactome map between HCV and cellular proteins was generated by Y2H screens. Twenty seven constructs encoding full-length HCV mature proteins or discrete domains were cloned using a recombination-based cloning system (10) (FIG. 6). Four independent screens were performed with each HCV bait protein, probing two distinct human cDNA libraries (Supplementary Methods). […] Two validation methods were used to assess the confidence of the IMAP Y2H dataset.

For `C/C=C1\C(=O)C[C@H]2[C@@H]3CCC4=CC(=O)CC[C@]4(C)[C@H]3CC[C@]12C` [guggulsterone], the “effect on the up-regulation of HCV replication induced by BAs” value in the test on HCV RNA replication (FXR antagonism, in presence of BAs) is “blocked the up-regulation induced by BAs”. In addition, the “inhibition of basal level of HCV replication” value in the test on HCV RNA replication (guggulsterone alone) is “tenfold”.
Consider ACTN2, for which the CoAP result in test [1] (setting [4]) is “−”. In the test with HCV proteins (setting [4]), the Y2H matrices result was “+”. Besides, in test [2] (HCV protein NS3 as bait), the “IMAP Y2H IMAP1 (number of IST)” value turned out to be 10 and the “IMAP Y2H IMAP2 (number of IST)” value was 6. Further, in test [3], the “Interaction with viral protein” value is “NS3”.
On the same counts, the results for CALCOCO2 are “+”, “+”, 5, 2 and “NS3”.
Consider KPNA1, for which the CoAP entry in test [1] (setting [4]) was “+”. The “IMAP Y2H IMAP2 (number of IST)” value in test [2] (HCV protein NS3 as bait) is recorded as 8. Moreover, the “Interaction with viral protein” value in test [3] is on record as “NS3”.
As for NOTCH1, the Y2H matrices result with HCV proteins (setting [4]) is “+”. Also, the “IMAP Y2H IMAP1 (number of IST)” value in test [2] (HCV protein NS3 as bait) is listed as 2. The “Interaction with viral protein” value in test [3] is “NS3”.
For PARP4, in that order: “+”, 8 and “NS3”.
On the same counts, the results for PDE4DIP are “+”, 3 and “NS3”.
With PPP1R13L, the CoAP result in test [1] (setting [5]) is “+”. Also, in test [2] (HCV protein NS5A as bait), the “IMAP Y2H IMAP2 (number of IST)” value is listed as 2. Moreover, the “Interaction with viral protein” value in test [3] is given as “NS5A”.
PSME3: the Y2H matrices result with HCV proteins (setting [4]) is “+”. Besides, in test [2] (HCV protein NS3 as bait), the “IMAP Y2H IMAP1 (number of IST)” value was found to be 10. For the same molecule, the “Interaction with viral protein” value in test [3] is recorded as “NS3”.
On the same counts, the results for RGNEF are “+”, 1 and “NS3”.
In the case of RICS, in the test with HCV proteins (setting [4]), the Y2H matrices result is “+”. In test [2] (HCV protein NS3 as bait), the “IMAP Y2H IMAP1 (number of IST)” value is recorded as 3 and the “IMAP Y2H IMAP2 (number of IST)” value is reported as 1. Besides, the “Interaction with viral protein” value in test [3] is reported as “NS3”.
Regarding RINT1, the Y2H matrices result in the test with HCV proteins (setting [4]) is recorded as “+”. Besides, the “IMAP Y2H IMAP1 (number of IST)” value in test [2] (HCV protein NS3 as bait) stood at 1. Further, the “Interaction with viral protein” value in test [3] is given as “NS3”.
With RNF31, the Y2H matrices entry with HCV proteins (setting [6]) and with HCV proteins (setting [4]) was “+” each time. The “IMAP Y2H IMAP1 (number of IST)” value in test [2] (HCV protein CORE as bait) and in test [2] (HCV protein NS3 as bait) was 1 each time. Further, the “Interaction with viral protein” value in test [3] is “NS3 and CORE”.
Take RUSC2: the Y2H matrices entry with HCV proteins (setting [4]) is “+”. Also, in test [2] (HCV protein NS3 as bait), the “IMAP Y2H IMAP1 (number of IST)” value came out at 21 and the “IMAP Y2H IMAP2 (number of IST)” value turned out to be 1. In addition, the “Interaction with viral protein” value in test [3] is given as “NS3”.
In the case of SBF1, the Y2H matrices entry with HCV proteins (setting [4]) was “+”. Besides, the “IMAP Y2H IMAP1 (number of IST)” value in test [2] (HCV protein NS3 as bait) worked out at 1. Moreover, the “Interaction with viral protein” value in test [3] is recorded as “NS3”.
On the same counts, the results for SLIT1 are “+”, 7 and “NS3”.
On to SMURF2, for which, in test [1] (setting [4]), the CoAP result is on record as “+”. In test [2] (HCV protein NS3 as bait), the “IMAP Y2H IMAP2 (number of IST)” value is given as 4. Further, the “Interaction with viral protein” value in test [3] was “NS3 and NS2”.
With SMYD3, in the test with HCV proteins (setting [5]), the Y2H matrices result is on record as “+”. Moreover, the “IMAP Y2H IMAP1 (number of IST)” value in test [2] (HCV protein NS5A as bait) came out at 1. The “Interaction with viral protein” value in test [3] was “NS5A”.
As for STAB1, the Y2H matrices entry in the test with HCV proteins (setting [4]) is “+”. Further, the “IMAP Y2H IMAP1 (number of IST)” value in test [2] (HCV protein NS3 as bait) stood at 4. Besides, the “Interaction with viral protein” value in test [3] is given as “NS3”.
On the same counts, the results for STAT3 are “+”, 1 and “NS3”.
For SVEP1, in the test with HCV proteins (setting [4]), the Y2H matrices result is reported as “+”. Further, the “IMAP Y2H IMAP1 (number of IST)” value in test [2] (HCV protein NS3 as bait) is recorded as 3. In test [3], the “Interaction with viral protein” value is “NS3”.
On the same counts, the results for TAF1 are “+”, 2 and “NS3”.
On the same counts, the results for TGFB1I1 are “+”, 1 and “NS3”.
As to TRIM27, the Y2H matrices result with HCV proteins (setting [4]) was “+”. For the same molecule, the “IMAP Y2H IMAP2 (number of IST)” value in test [2] (HCV protein NS2 as bait) was found to be 1. Moreover, in test [2] (HCV protein NS3 as bait), the “IMAP Y2H IMAP1 (number of IST)” value was 1. Further, in test [3], the “Interaction with viral protein” value is “NS3 and NS2”.
For the molecule TRIO, the Y2H matrices result in the test with HCV proteins (setting [4]) was “+”. Moreover, in test [2] (HCV protein NS3 as bait), the “IMAP Y2H IMAP1 (number of IST)” value worked out at 1 and the “IMAP Y2H IMAP2 (number of IST)” value was determined as 1. In test [3], the “Interaction with viral protein” value is listed as “NS3”.
In the case of TRIP11, in the test with HCV proteins (setting [4]), the Y2H matrices result was “+”. In addition, the “IMAP Y2H IMAP1 (number of IST)” value in test [2] (HCV protein NS3 as bait) is given as 1. Also, the “Interaction with viral protein” value in test [3] is on record as “NS3”.
On to UBQLN1, for which the Y2H matrices entry in the test with HCV proteins (interaction with HCV protein p7) and with HCV proteins (validation of interaction with HCV protein NS4A) was “+” throughout. Moreover, the “IMAP Y2H IMAP1 (number of IST)” value in test [2] (HCV protein NS4A as bait) is given as 2; in test [2] (HCV protein p7 as bait) it was 3. Besides, the “Interaction with viral protein” value in test [3] was “NS4A”.
As to VCAN, in the test with HCV proteins (setting [4]), the Y2H matrices entry is “+”. Besides, the “IMAP Y2H IMAP1 (number of IST)” value in test [2] (HCV protein NS3 as bait) was determined as 1. For the same molecule, in test [3], the “Interaction with viral protein” value was “NS3”.
On the same counts, the results for VIM are “+”, 32 and “NS3”.
On to VWF, for which the Y2H matrices result with HCV proteins (setting [6]) and with HCV proteins (setting [4]) was “+” in each case. For the same molecule, the “IMAP Y2H IMAP1 (number of IST)” value came to 2 in test [2] (HCV protein CORE as bait) and 26 in test [2] (HCV protein NS3 as bait). Further, the “Interaction with viral protein” value in test [3] was “NS3 and CORE”.
Turning to ZNF646, the CoAP entry in test [1] (setting [5]) is listed as “−”. For the same molecule, the “IMAP Y2H IMAP2 (number of IST)” value in test [2] (HCV protein NS5A as bait) was found to be 2.
Regarding deoxycholate, the “up-regulation of HCV RNA replication” value in the test on HCV RNA replication is “more than tenfold”.
